The results in this text go back to patent US20110271358A1 (Dana-Farber, published 2011).

T1: human Fc-PD-L2 (R&D systems) (human, UniProt Q9BQ51 20-219)
T1 construct: Bought Fc fusion coated on the ELISA plate; also called human PD-L2; not shown: Fc part of the bought fusion protein
T1 sequence: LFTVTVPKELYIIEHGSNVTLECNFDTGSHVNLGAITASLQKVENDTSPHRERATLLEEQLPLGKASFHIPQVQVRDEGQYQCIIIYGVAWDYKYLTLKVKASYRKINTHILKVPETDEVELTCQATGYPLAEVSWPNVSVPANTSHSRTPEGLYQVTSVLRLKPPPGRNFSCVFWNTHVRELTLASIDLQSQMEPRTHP

B1: mouse anti-human PD-1 antibody EH12.2H7 (antibody, V domains shown)
VH: QVQLQQSGAELAKPGASVQMSCKASGYSFTSSWIHWVKQRPGQGLEWIGYIYPSTGFTEYNQKFKDKATLTADKSSSTAYMQLSSLTSEDSAVYYCARWRDSSGYHAMDYWGQGTSVTVSS
VL: DIVLTQSPASLTVSLGQRATISCRASQSVSTSGYSYMHWYQQKPGQPPKLLIKFGSNLESGIPARFSGSGSGTDFTLNIHPVEEEDTATYYCQHSWEIPYTFGGGTKLEIK
notes: Mouse monoclonal antibody; also called Biotin-EH12.2H7
B2: EH12.2H7 composite, human antibody VH3/VK3 (antibody, V domains shown)
VH: QVQLVQSGHEVKQPGASVKMSCKASGYSFTSSWIHWVKQAPGQGLEWIGYIYPSTGFTEYNQKFKDRATLTADKSTSTAYMELSSLRSEDTAVYYCARWRDSSGYHAMDYWGQGTLVTVSS
VL: EIVLTQSPATLSLSPGQRLTISCRASQSVSTSGYSYMHWYQQKPDQSPKLLIKFGSNLESGIPARFSGSGSGTDFTLTISSLEPEDFATYYCQHSWEIPYTFGQGTKLEIK
notes: V regions cloned into vectors containing human constant regions (quantified against an IgG1/kappa standard; isotype not expressly stated)
B3: EH12.2H7 composite, human antibody VH4/VK4 (antibody, V domains shown)
VH: B2 VH with K38R
VL: B2 VL with E1D, T89V
notes: as for B2
B4: EH12.2H7 composite, human antibody VH4/VK3 (antibody, V domains shown)
VH: B2 VH with K38R
VL: B2 VL
notes: as for B2
B5: EH12.2H7 composite, human antibody VH3/VK4 (antibody, V domains shown)
VH: B2 VH
VL: B2 VL with E1D, T89V
notes: as for B2
B6: 29E.2A3 composite, human antibody VH2/VK2 (antibody, V domains shown)
VH: EVQLVQSGAEVKKPGASVKMSCKASGYTFTSYVMHWVKQAPGQRLEWIGYVNPFNDGTKYNEMFKGRATLTSDKSTSTAYMELSSLRSEDTAVYYCARQAWGYPWGQGTLVTVSS
VL: DIVLTQSPATLSLSPGERATLSCRATESVEYYGTSLVQWYQQKPGQPPKLLIYAASSVDSGVPSRFSGSGSGTDFTLTINSLEAEDAAMYFCQQSRRVPYTFGQGTKLEIK
notes: as for B2
B7: 29E.2A3 composite, human antibody VH4/VK2 (antibody, V domains shown)
VH: B6 VH with M20V, K38R
VL: B6 VL
notes: as for B2
B8: mouse anti-human PD-L2 antibody 24F.10C12 (antibody, V domains shown)
VH: QVQLQQSAAELARPGASVKMSCKASGYTFTGYTMHWVKQRPGQGLEWIGYINPRSGYTEYNQKFKDKTTLTADKSSSTAYMQLSSLTSEDSAVYYCARPWFAYWGQGTLVTVSA
VL: DIVMTQSPSSLTVTAGEKVTMSCKSSQSLLNSGNQKNYLTWYQQKPGQPPKLLIYWASTRESGVPDRFTGSGSGTDFTLTISSVQAEDLAVYYCQNDYSYPLTFGAGTKLELK
notes: Mouse monoclonal antibody; also called Biotin-24F.10C12
B9: 24F.10C12 composite, human antibody VH2/VK2 (antibody, V domains shown)
VH: QVQLVQSGAEVKKPGASVKMSCKASGYTFTGYTMHWVKQAPGQGLEWIGYINPRSGYTEYNQKFKDRTTLTADKSTSTAYMELSSLRSEDTAVYYCARPWFAYWGQGTLVTVSS
VL: B8 VL with S9A, T12S, A15P, M21I, S22T, V84L, L89V, A106Q, L112I
notes: as for B2
B10: 24F.10C12 composite, human antibody VH4/VK2 (antibody, V domains shown)
VH: B9 VH with M20V, K38R
VL: B8 VL with S9A, T12S, A15P, M21I, S22T, V84L, L89V, A106Q, L112I
notes: as for B2
B11: 24F.10C12 composite, human antibody VH2/VK3 (antibody, V domains shown)
VH: B9 VH
VL: B8 VL with S9A, S10F, T12S, A15P, M21I, S22T, V84L, L89V, A106Q, L112I
notes: as for B2
B12: 24F.10C12 composite, human antibody VH4/VK4 (antibody, V domains shown)
VH: B9 VH with M20V, K38R
VL: DIVMTQSPAFLSVTPGEKVTITCKSSQSLLNSGNQKNYLTWYQQKPGQPPKLLIYWASTRESGVPDRFSGSGSGTDFTLTISSLQAEDVAVYYCQNDYSYPLTFGQGTKLEIK
notes: as for B2
B13: mouse anti-human PD-L1 antibody 29E.2A3 (antibody, V domains shown)
VH: EVQLQQSGPELVKPGASVKMSCKASGYTFTSYVMHWVKQKPGQGLEWIGYVNPFNDGTKYNEMFKGKATLTSDKSSSTAYMELSSLTSEDSAVYYCARQAWGYPWGQGTLVTVSA
VL: DIVLTQSPASLAVSLGQRATISCRATESVEYYGTSLVQWYQQKPGQPPKLLIYAASSVDSGVPARFSGSGSGTDFSLTIHPVEEDDIAMYFCQQSRRVPYTFGGGTKLEIK
notes: Mouse monoclonal antibody; also called Biotin-29E.2A3
B14: 29E.2A3 composite, human antibody VH2/VK1 (antibody, V domains shown)
VH: B6 VH
VL: B6 VL with T10S, S12A, A84E
notes: as for B2

Where a chain is given by its changes, count along the chain named.

For the first test, the target named is T2, human Fc-PD-1 (R&D systems) (human, UniProt Q15116 25-167).
T2 construct: Bought Fc fusion coated on the ELISA plate; also called human PD-1; not shown: Fc part of the bought fusion protein
T2 sequence (Q15116 25-167 limits assumed): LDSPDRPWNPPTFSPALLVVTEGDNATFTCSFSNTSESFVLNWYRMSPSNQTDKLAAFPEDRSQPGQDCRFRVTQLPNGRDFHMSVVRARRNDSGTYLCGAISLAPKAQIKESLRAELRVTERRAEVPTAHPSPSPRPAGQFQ
In words: competition ELISA on coated human Fc-PD-1; competitor biotinylated EH12.2H7. Background: In an ELISA, binding on a coated surface is turned into a signal by an enzyme label.
In general, IC50 refers to the concentration at which inhibition is half-maximal. Consider B1, for which the 50% inhibitory concentration (IC50) worked out at 1.23 µg/mL.
The molecule B2 came in with a half-inhibitory concentration (IC50) of 0.93 µg/mL.
On the same count and under the same terms, the figure for B3 is 0.91 µg/mL; for B4 it is 0.57 µg/mL.
In turn, B5 showed an IC50 of 0.74 µg/mL.

In the next test the target is T3, human Fc-PD-L1 (R&D systems) (human, UniProt Q9NZQ7 19-239).
T3 construct: Bought Fc fusion coated on the ELISA plate; also called human PD-L1; not shown: Fc part of the bought fusion protein
T3 sequence (Q9NZQ7 19-239 limits assumed): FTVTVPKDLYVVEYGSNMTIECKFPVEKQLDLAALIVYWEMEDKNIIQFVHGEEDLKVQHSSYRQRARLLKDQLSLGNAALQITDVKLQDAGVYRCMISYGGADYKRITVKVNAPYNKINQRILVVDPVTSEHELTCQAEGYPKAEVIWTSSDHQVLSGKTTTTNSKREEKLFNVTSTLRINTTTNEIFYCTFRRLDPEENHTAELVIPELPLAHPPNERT
In words: competition ELISA on coated human Fc-PD-L1; IC50 against mouse 29E.2A3.
Take B6: the “fold reduced binding compared to the mouse reference” value (“fold reduced binding” below) came to 1.75 fold.
Regarding B7, the “fold reduced binding” value turned out to be 1.36 fold.

Another test concerns the target T1, human Fc-PD-L2 (R&D systems). Put plainly: competition ELISA on coated human Fc-PD-L2; competitor biotinylated 24F.10C12.
Consider B8, for which the IC50 was determined as 0.52 µg/mL.
On the same count and under the same terms, the figure for B9 is 0.58 µg/mL; for B10 it is 0.6 µg/mL; for B11 it is 0.59 µg/mL.
Same read-out and setting: the figure for B12 is 0.58 µg/mL.

A further test has the same target. Put plainly: competition ELISA on coated human Fc-PD-L2; IC50 against mouse 24F.10C12.
Regarding B9, the “fold reduced binding” value worked out at 1.13 fold.
Still for that read-out and setting: the figure for B10 is 1.13 fold.
Still for that read-out and setting: under B11 stands 1.13 fold; under B12, 1.13 fold.

In a further test the target is T3, human Fc-PD-L1 (R&D systems). In words: competition ELISA on coated human Fc-PD-L1; competitor biotinylated 29E.2A3.
In the case of B13, the 50% inhibitory concentration (IC50) was found to be 0.28 µg/mL.
Still for that read-out and setting: under B6 stands 0.49 µg/mL.
On the same count and under the same terms, under B7 stands 0.38 µg/mL; under B14, 0.27 µg/mL.

The target of the next test is T2, human Fc-PD-1 (R&D systems). In words: competition ELISA on coated human Fc-PD-1; IC50 against mouse EH12.2H7.
On to B4, for which the “fold increase in binding compared to the mouse reference” value worked out at 2 fold.
